In this test the target is CD22. In words: BLI. For orientation: BLI is a label-free optical method that tracks binding on a fibre tip over time.

A word on the Kd: it is the concentration at which binding is half-saturated. In the case of Epratuzumab Fab, the Kd was 0.059 µM. Epratuzumab Fab-Ferritin gave a Kd of 0.051 µM.
